From article PMC3001067 (Nucleic Acids Research, 2010)
Numbering of substitutions follows the chain as printed. Names and notes keep the numbering of the source.

Legend:
[1] = biological target: Thermus aquaticus RNAP β-subunit β1 domain (Taq β 17–139 –Gly–Gly– 334–395) (Thermus aquaticus) (UniProt Q9KWU7); test: crystal structure
[2] = biological target: Tth RNAP-β1 Q99R (Tth RNAP β-subunit residues 10–133), two-hybrid fusion (Thermus thermophilus) (UniProt Q8RQE9); test: two-hybrid
[3] = biological target: Eco RNAP β-subunit residues 19–142 (Eco RNAP-β1), two-hybrid fusion (Escherichia coli) (UniProt P0A8V2); test: two-hybrid
[4] = biological target: Tth RNAP β-subunit residues 10–133 (Tth RNAP-β1), two-hybrid fusion (Thermus thermophilus) (UniProt Q8RQE9); test: two-hybrid
[5] = biological target: T1, Tth RNAP-β1 Q99R (Tth RNAP β-subunit residues 10–133), two-hybrid fusion (Thermus thermophilus, UniProt Q8RQE9 10-133, Q99R); test: two-hybrid
T1 sequence (looked up): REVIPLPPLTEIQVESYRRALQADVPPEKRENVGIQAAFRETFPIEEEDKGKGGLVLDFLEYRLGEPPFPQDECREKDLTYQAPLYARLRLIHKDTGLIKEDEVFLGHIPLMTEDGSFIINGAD

[6] = biological target: Eco RNAP β-subunit residues 19–142 (Eco RNAP-β1), two-hybrid fusion (Escherichia coli, UniProt P0A8V2 19-142); test: two-hybrid

Molecule: Thermus thermophilus HB27 TRCF RNAP interacting domain (Tth TRCF–RID, residues 321–387) (domain or fragment)
- stoichiometry N [1]: 1

Molecule: Tth TRCF residues 314–444 (Tth TRCF–RID), two-hybrid fusion (domain or fragment)
- fold defect of the two-hybrid signal against wild-type Tth RNAP-β1 [2]: 2 fold

Molecule: Tth TRCF–RID R341L (Tth TRCF residues 314–444), two-hybrid fusion (domain or fragment)
- fold change of the two-hybrid signal against wild-type Tth TRCF–RID [3]: 2 fold
- fold defect of the two-hybrid signal against wild-type Tth TRCF–RID [4]: 2 fold

B1: Eco TRCF residues 472–603 (Eco TRCF–RID), two-hybrid fusion (domain or fragment, Escherichia coli, UniProt P30958 472-603, looked up)
chain: RNLAELHIGQPVVHLEHGVGRYAGMTTLEAGGITGEYLMLTYANDAKLYVPVSSLHLISRYAGGAEENAPLHKLGGDAWSRARQKAAEKVRDVAAELLDIYAQRAAKEGFAFKHDREQYQLFCDSFPFETTP
- fold change of the two-hybrid signal against wild-type Tth RNAP-β1 [5]: ~2 fold

B2: Eco TRCF–RID L499R (Eco TRCF residues 472–603), two-hybrid fusion (domain or fragment, Escherichia coli, UniProt P30958 472-603, looked up)
chain: B1 chain with L28R
- fold defect of the two-hybrid signal against wild-type Eco TRCF–RID [6]: ~10 fold
